Data from patent publication US20230143031A1 (published 2023).

Molecular target: T1, NY-ESO antigen (NY-ESO-1) peptide on HLA-A*02:01 (human)
T1 peptide: SLLMWITQC
Assay: multimer staining

- binding result: recognises
B1: anti-NY-ESO TCR (TCR, V domains shown)
Valpha: KQEVTQIPAALSVPEGENLVLNCSFTDSAIYNLQWFRQDPGKGLTSLLLIQSSQREQTSGRLNASLDKSSGRSTLYIAASQPGDSATYLCAGDNNAGNMLTFGGGTRLMVKP
Vbeta: DAMVIQNPRYQVTQFGKPVTLSCSQTLNHNVMYWYQQKSSQAPKLLFHYYDKDFNNEADTPDNFQSRRPNTSFCFLDIRSPGLGDAAMYLCATSVTDGTALTGELFFGEGSRLTVL
